# Experimental data published in paper PMC2855492.
# Legend:
# [1] = biological target: monkey FcRn (monkey (cynomolgus monkeys in the same paragraph)) (UniProt Q8SPV9)
# [2] = biological target: human neonatal Fc receptor (FcRn) (human) (UniProt P55899)
# [3] = biological target: human neonatal Fc receptor (FcRn) (human) (UniProt P55899); assay: SPR
# [4] = biological target: monkey FcRn (monkey (cynomolgus monkeys in the same paragraph)) (UniProt Q8SPV9); remark: listed apart in the source
"serum half-life in cynomolgus monkeys, 7.5 mg/kg i.v. [1] [days]","serum half-life in hFcRn mice (mFcRn-/-, hFcRn+), 2 mg/kg i.v. [2] [days]",fold improvement in FcRn affinity [3] [fold],"serum half-life in cynomolgus monkeys, 4 mg/kg i.v. [4] [days]",Substance
4.7,13.9,,,Xtend-EGFR (humanized cetuximab huC225 IgG1 with the Fc substitutions M428L/N434S) (antibody)
,12,11,31.1,Xtend-VEGF (bevacizumab IgG1 with the Fc substitutions M428L/N434S) (antibody)
